Data taken from patent US20250043017A1 (Regeneron, published 2025).

Experiments:
[1] = molecular target: T1, human PD-L1 on cells (human, UniProt Q9NZQ7 19-290); experiment: flow cytometry, Jurkat/NFkB-Luc/h41BB cells (potential low endogenous PD-L1)
T1 construct: whole, on cells; the cell line stands under assay; also called hPD-L1; OVCAR3/hPD-L1
Protocol: (§1) Binding was detected by using a labeled secondary antibody and measuring fluorescence on a flow cytometer.
(§2) Assay set up: OVCAR-3+/−PD-L1 cells were lifted with trypsin, washed and resuspended in stain buffer (2% FBS in PBS). OVCAR-3 and Jurkat/NFkB-Luc/h41BB cells were counted and added to wells at 200,000 cells/well. Cells, in wells of 96-well round bottom plates, were pelleted by centrifugation and resuspended in 150 ul stain buffer (PBS containing 2% FBS). Plates were once again centrifuged and subsequently 100 ul of stain buffer alone or stain buffer containing antibody, titrated from 200 nM to 12 pM in a 9-point 1:4 dose titration were added to cells. Cells and antibodies were incubated for 30 min on ice and then washed in stain buffer. Cells were resuspended in 2 μg/ml allophycocyanin (APC) conjugated goat-anti human secondary antibody. A secondary antibody alone control was included. Cells and secondary were incubated for 30 min on ice and then washed in stain buffer. […] After washing they were filtered and analyzed by flow cytometry. EC₅₀ values of the antibodies were determined from a 4 parameter logistic equation over a 9-point dose response curve (including secondary only control) using GraphPad Prism software.

[2] = molecular target: T1, human PD-L1 on cells; experiment: cell-based or functional assay
[3] = molecular target: T2, hPD-L1-mFc (human; mouse, UniProt Q9NZQ7 19-239); experiment: blocking ELISA, 0.7 nM hPD-L1-mFc binding to coated hPD1-hFc
T2 construct: range 19-239; also called human PD-L1 extracellular domain with mouse IgG2a Fc; not shown: Fc portion of mouse IgG2a at the C-terminus, amino acids E98-K330
Protocol: In the PD-L1 blocking assay, hPD1-hFc protein ([…] in PBS) was coated onto a 96-well microtiter plate overnight at 4° C. […] The plates were then developed using TMB substrate solution (BD Biosciences) according to the manufacturer's recommended procedure and the absorbance at 450 nm was measured on a SpectraMax I3x plate reader.
(§3) Binding data were analyzed using a sigmoidal (four-parameter logistic) dose-response model with GraphPad Prism™ software. […] The percent blocking of tested antibodies at the highest tested concentration of 100 nM was calculated based on the formula shown below: […]

[4] = molecular target: T3, human 4-1BB on cells (human, UniProt Q07011 24-255); experiment: cell-based or functional assay
[5] = molecular target: T4, human 4-1BB expressed with a C-terminal myc-myc-hexahistidine tag (h4-1BB.mmH) (human); experiment: blocking ELISA, 0.25 nM h4-1BB-mmh binding to coated 6His-Flag-h4-1BBL
T4 construct: also called hCD137 (4-1BB) mmH
Protocol: The 4-1BB blocking assay was performed similarly to the PD-L1 blocking assay. 6His-Flag-h4-1BBL protein ([…] in PBS) was coated onto a 96-well microtiter plate overnight at 4 °C. […] The plates were developed using TMB substrate solution (BD Biosciences) and the absorbance at 450 nm was measured on a SpectraMax I3x plate reader.
as §3

[6] = molecular target: T4, human 4-1BB expressed with a C-terminal …; experiment: SPR Biacore, 25 C, antibody captured via anti-hFc, h4-1BB.mmH as analyte
Protocol: The CM5 Biacore sensor surface was derivatized by amine coupling with a monoclonal mouse anti-human Fc antibody. All Biacore binding studies were performed in a buffer composed of 0.01M HEPES pH 7.4, 0.15M NaCl, 3 mM EDTA, 0.05% v/v Surfactant P20 (HBS-EP running buffer). […] Antibody-reagent association was monitored for 5 minutes while dissociation in HBS-EP running buffer was monitored for 10 minutes. At the end of each cycle, the antibody capture surface was regenerated using a 10 sec injection of 20 mM phosphoric acid. All binding kinetics experiments were performed at 25° C.
(§4) Data analysis: The specific SPR-Biacore sensorgrams were obtained by a double referencing procedure. The double referencing was performed by first subtracting the signal of each injection over a reference surface (anti-hFc or anti-mFc) from the signal over the experimental surface (anti-hFc-captured anti-PD-L1×4-1BB antibodies) thereby removing contributions from refractive index changes. In addition, running buffer injections were performed to allow subtraction of the signal changes resulting from the dissociation of captured antibodies or antigens from the coupled anti-hFc or anti-mFc surface. Kinetic association (kₐ) and dissociation (kd) rate constants were determined by fitting the real-time sensorgrams to a 1:1 binding model using Scrubber v2.0c curve fitting software. Binding dissociation equilibrium constants (KD) and dissociative half-lives (t½) were calculated from the kinetic rate constants as: […]

[7] = molecular target: T1, human PD-L1 on cells; experiment: flow cytometry, OVCAR3/hPD-L1 cells
Protocol: as §1, §2

[8] = molecular target: T1, human PD-L1 on cells; experiment: flow cytometry, OVCAR3 cells (low endogenous PD-L1)
Protocol: as §1, §2

[9] = molecular target: human PD-L1 expressed with a C-terminal myc-myc-hexahistidine tag (hPD-L1.mmH) (human); experiment: SPR Biacore, 25 C, antibody captured via anti-hFc, hPD-L1.mmH as analyte
Protocol: The CM5 Biacore sensor surface was derivatized by amine coupling with a monoclonal mouse anti-human Fc antibody. All Biacore binding studies were performed in a buffer composed of 0.01M HEPES pH 7.4, 0.15M NaCl, 3 mM EDTA, 0.05% v/v Surfactant P20 (HBS-EP running buffer). […] Antibody-reagent association was monitored for 5 minutes while dissociation in HBS-EP running buffer was monitored for 10 minutes. At the end of each cycle, the antibody capture surface was regenerated using a 12 sec injection of 20 mM phosphoric acid. All binding kinetics experiments were performed at 25° C.
as §4

[10] = molecular target: T3, human 4-1BB on cells; experiment: cell-based or functional assay; remark: listed apart in the source

Sequence of human PD-L1 expressed with a C-terminal myc-myc-hexahistidine tag (hPD-L1.mmH) (human) (chain, as listed by the source limits assumed): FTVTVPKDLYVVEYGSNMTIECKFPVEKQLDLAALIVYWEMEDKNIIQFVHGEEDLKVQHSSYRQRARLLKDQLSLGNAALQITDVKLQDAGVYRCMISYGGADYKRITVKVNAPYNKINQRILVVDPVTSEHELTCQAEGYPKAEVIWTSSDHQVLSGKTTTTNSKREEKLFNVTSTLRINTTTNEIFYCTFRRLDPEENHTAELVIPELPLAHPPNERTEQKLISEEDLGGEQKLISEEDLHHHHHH
T4 sequence (chain, as listed by the source limits assumed): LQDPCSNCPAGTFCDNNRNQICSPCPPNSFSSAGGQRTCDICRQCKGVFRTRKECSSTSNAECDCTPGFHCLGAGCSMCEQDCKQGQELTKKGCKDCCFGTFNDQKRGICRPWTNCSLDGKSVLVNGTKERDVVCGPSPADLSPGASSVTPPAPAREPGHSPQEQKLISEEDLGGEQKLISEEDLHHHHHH
T1 sequence (Q9NZQ7 19-290): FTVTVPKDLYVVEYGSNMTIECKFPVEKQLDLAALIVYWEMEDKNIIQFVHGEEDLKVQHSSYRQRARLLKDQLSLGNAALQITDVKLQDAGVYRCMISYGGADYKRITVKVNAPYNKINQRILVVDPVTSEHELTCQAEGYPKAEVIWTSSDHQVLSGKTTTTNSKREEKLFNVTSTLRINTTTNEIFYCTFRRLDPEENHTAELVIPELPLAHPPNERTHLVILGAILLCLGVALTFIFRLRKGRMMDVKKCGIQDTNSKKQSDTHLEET
T3 sequence (Q07011 24-255): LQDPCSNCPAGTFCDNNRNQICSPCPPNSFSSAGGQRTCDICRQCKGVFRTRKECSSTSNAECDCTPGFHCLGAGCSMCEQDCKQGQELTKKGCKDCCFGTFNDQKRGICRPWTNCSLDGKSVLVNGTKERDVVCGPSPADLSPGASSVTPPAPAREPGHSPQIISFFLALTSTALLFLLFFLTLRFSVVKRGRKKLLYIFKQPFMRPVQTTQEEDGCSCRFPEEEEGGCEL
T2 sequence (Q9NZQ7 19-239 limits assumed): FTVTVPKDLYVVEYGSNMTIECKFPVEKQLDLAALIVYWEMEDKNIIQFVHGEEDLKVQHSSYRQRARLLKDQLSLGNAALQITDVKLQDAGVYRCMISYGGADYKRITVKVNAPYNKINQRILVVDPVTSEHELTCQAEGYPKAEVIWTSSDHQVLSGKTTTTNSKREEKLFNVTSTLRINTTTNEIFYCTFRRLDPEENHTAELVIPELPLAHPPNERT

B1: mAb9364 (antibody, V domains shown)
VH: EVQLVESGGGLVQPGRSLRLSCAASGFTFDDYALHWVRQAPGKGLEWVSGISWTGGTIDYADSVKGRFTISRDNAKNSLYLQMSSLRTEDTAIYYCTRDIRGNWKYGGWFDPWGQGTLVTVSS
VL: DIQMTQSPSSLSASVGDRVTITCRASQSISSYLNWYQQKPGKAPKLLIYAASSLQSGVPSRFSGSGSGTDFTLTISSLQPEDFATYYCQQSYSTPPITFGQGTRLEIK
notes: bivalent parental anti-PD-L1 antibody; captured by anti-human Fc); also called 9364P3; parental bivalent PD-L1 antibody
- Fold change (max MFI over secondary antibody alone) [1]: 9.5 fold
- AP-1 luciferase EC50, Jurkat/AP1-luc/hPD1 + WSU-DLCL2/hPD-L1 + CD20xCD3 [2]: 6.51 pM
- IC50 [3]: 520 pM
- NFkB-luciferase MAX (RLU), Jurkat/NFkB-Luc/h41BB + HEK293/hCD20/hPSMA [4]: 60900 RLU
- NFkB-luciferase MAX (RLU), Jurkat/NFkB-Luc/h41BB + HEK293/hCD20/hPSMA/hPD-L1 [4]: 70900 RLU
- % Blocking at 100 nM mAb [5]: 0%
- 270 nM h4-1BB-mmH Bind (RU) [6]: 2 RU
- binding result [6]: no binding (tested: 270 nM)
- EC50 [7]: 860 pM
- Fold change (max MFI over secondary antibody alone) [7]: 2200 fold
- EC50 [8]: 8.4 pM
- Fold change (max MFI over secondary antibody alone) [8]: 4.4 fold
- Kd [9]: 130 pM
- koff [9]: 7.42e-05 s⁻¹
- kon [9]: 571000 M⁻¹ s⁻¹
- t½ [9]: 2.59 h
- IL2 release MAX, human CD3+ T cells + HEK293/hCD20/hPSMA + CD20xCD3 [10]: 13.4 pg/mL
- IL2 release MAX, human CD3+ T cells + HEK293/hCD20/hPSMA, no CD20xCD3 [10]: 3.5 pg/mL
- IL2 release MAX, human CD3+ T cells + HEK293/hCD20/hPSMA/hPD-L1 + CD20xCD3 [10]: 9.3 pg/mL
- IL2 release MAX, human CD3+ T cells + HEK293/hCD20/hPSMA/hPD-L1, no CD20xCD3 [10]: 3.5 pg/mL
